What is called Kd is the free concentration of one partner at which half of the binding sites on the other are occupied at equilibrium, for simple one-to-one binding. Read a high Kd as weaker binding.

This test has as its target Native HIV-1 cores (mature CA lattice of hexamers and pentamers) (HIV-1).

B1: GST-NUP153_(1306-1450)(LCR-FG-LCR) (domain or fragment)
chain: FGTGPSAPSASPAFGANQTPTFGQSQGASQPNPPGFGSISSSTALFPTGSQPAPPTFGTVSSSSQPPVFGQQPSQSAFGSGTTPNSSSAFQFGSSTTNFNFTNNSPSGVFTFGANSSTPAASAQPSGSGGFPFNQSPAAFTVGSN
B1 came in with a Kd of 310 nM.

B2: GST-CPSF6_(261-358)(LCR-FG-LCR) (domain or fragment)
chain: SDIIPTTENLYFQGAIAEIPIFGLKAGQTPPRPPLGPPGPPGPPGPPPPGQVLPPPLAGPPNRGDRPPPPVLFPGQPFGQPPLGPLPPGPPPPVPGYGPPPGPPPPQQGPPPPPG
Turning to B2, binding was characterised by a dissociation constant (Kd) of 890 nM.

B3: GST-SEC24C_(196-314)(LCR-FG-LCR) (domain or fragment)
chain: HPGIQTPQRSAPSQASSFTPPASGGPRLPSMTGPLLPGQSFGGPSVSQPNHVSSPPQALPPGTQMTGPLGPLPPMHSPQQPGYQPQQNGSFGPARGPQSNYGGPYPAAPTFGSQPGPPQ
B3 showed a Kd of 810 nM.

(Values after publication PMC9537594 (2022).)
